Laboratory results from patent CN114106174A (SUZHOU SCENE MEDICAL SCIENCE AND TECH LIMITED COMPANY, dated 2022).

Target: T1, OX40 on OX40-overexpressing cells (OX40过表达细胞表面OX40) (UniProt P43489 29-277, limits assumed)
T1 construct: whole, on cells; The cell line and the construct of the overexpressing cells are not described; also called CD134; TNFRSF4
T1 sequence (looked up): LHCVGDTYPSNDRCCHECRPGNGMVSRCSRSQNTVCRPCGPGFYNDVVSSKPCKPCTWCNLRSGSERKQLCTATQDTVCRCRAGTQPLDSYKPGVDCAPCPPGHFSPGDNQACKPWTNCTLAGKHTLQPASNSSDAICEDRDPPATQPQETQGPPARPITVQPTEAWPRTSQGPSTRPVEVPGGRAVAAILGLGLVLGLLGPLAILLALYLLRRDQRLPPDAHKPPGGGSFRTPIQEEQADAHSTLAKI
Assay: flow cytometry, hybridoma supernatant on OX40-overexpressing cells, goat anti-mouse IgG-PE

Binder	Y586通道PE荧光值
28E3-4 (antibody, V domains shown) VH: QVQLQESGPGLVKPSGTLSLTCAVSGGSISRSNWWTWVRQSPGKGLEWIGEIYHSGNTNYNPSLKSRVTISLDKSKNQFSLKLSSVTAADTAVYYCASSGSLYMDVWGKGTTVTVSS VL: DIQMTQSPSSLSASVGDRVTISCRASQSTSSYLNWYQQKPGKAPRLLIYGASSLQSGVPSRFSGSGSGTDFILTISSLQPEDFATYYCQQSYSIPITFGQGTRLEIKR	195000
23D1-8 (antibody, V domains shown) VH: QVQLVQSGAEVKKPGASVKVSCKASGYTFTGYYIHWVRQAPGQGLEWMGRINPNSGGTDFAQKFQARVTMTRDTAINIVYMELSRLRSDDTAVYYCARVVVASYYFDNWGQGTLVTVSS VL: not shown	166000
24B9-10 (antibody, V domains shown) VH: QVQLQESGPGLVKPSGTLSLTCAVSGGSISSSNWWTWVRQPPGKGLEWIGEIYHSGSTNYNPSLKSRVTISVDKSKNQFSLKLSSVTAADTAVYYCARTGPIVTTEYWGQGTLVTVSS VL: EIVLTQSPGTLSLSPGERATLSCRASQSVSSGYLAWYQQKPGQAPRLLIYGASIRATGIPDRFSGSGSGTDFTLTISRLEPEDFALYYCQQYGSSPLTFGGGTKVEIKR	313000
24A12-12 (antibody, V domains shown) VH: QVQLQESGPGLVKPAGTLSLTCAVSGGSISSSNWWNWVRQPPGKGLEWIGEIYHSGSTNYNPSLKSRVTISVDTSKNQFSLKLTSVTAADTAVYYCARTGPTVTTDYWGQGTLVTVSS VL: EIVLTQSPGTLSLSPGERATLSCRASQSVSSSYLAWYQQKPGQAPRLLIYGASYRATGMPERFSGSGSGTDFTLTISRLEPEDFAIYYCQQYGRSPLTFGGGTKVEIKR	343000
29A9-5 (antibody, V domains shown) VH: QVQLQESGPGLVKPSGTLSLTCAVFGDSISSSYWWSWVRQPPGKGLEWIGEIYHSGSTHYNPSLKSRVTISVDKSKNHLSLKLISVTDADTAVYYCAGEDTGWPFDFWGQGTLVTVSS VL: not shown	221000
35B8-6 (antibody, V domains shown) VH: QITLKESGPTLVKPTQTLTLTCTFSGFSLSTSAVNVGWIRQPHGKALEWLALIFWNDDKRYSPSLKNRLTITKDTSKDQVVLTMSNMDPVDTATYYCAQYNWNSSFDYWGQGTLVTVSS VL: DIQMTQSPSSLSASLGDRVTITCQASQDINTYLNWYQQKPGKAPKVLIYDASNLETGVPSRFSGSGSGTDFTFTISSLQPEDIATFYCQQYDNLITFGGGTKVEIKR	243000
38D9-12 (antibody, V domains shown) VH: QVQLQESGPGLVKPSGTLSLTCAVSGDSISSTNWWSWVRQPPGKGLEWIGEINHNGSTYYNPSLKSRVTISVDKSKNQFSLKLRSVTAADTAVYYCAREDYYYMDVWGKGTTVTVSS VL: DIQMTQSPSSLSASVGDRVTITCRTSQGIWNDLGWYQQKPGKAPKRLIYAASSLQSGVPSRFSGSESGTEFTLTISSLQPEDFATYYCLQYNNYPLTFGGGTKVEIKR	243000
4D9-12 (antibody, V domains shown) VH: QVQLQESGPGLVKPSGTLSLTCAVSGGSISSSNWWSWVRQPPGKGLEWIGEIYHSGNTIYNPSLKSRVTISLDKSKNQFSLKLSSVTAADTAVYYCASSGSLYMDVWGKGTTVTVSS VL: DIQMTQSPSSLLSSVGDRVTISCRASHGSSTYLNWYQQKPGKAPRLLIYGASSLQSGVPSRFSGSGFGTDFILTISSMQPEDFATYYCQQSYSIPITFGQGTRLEIKR	187000
48D10-5 (antibody, V domains shown) VH: QVQLVQSGAEVKKPGASMKVSCKASGYTFANFGINWVRQAPGQGLEWMGWISAYNGYTNYAQQFQGRITMTTDTSTSTAYMELRSLRSDDTAIYYCVIWFGELLSFDYWGQGTLVTVSS VL: DIQMTQFPSSLSASVGDRVTITCRASQDISNYLAWFQQKPGKAPKSLIYAASSLQSGVPSKFSGNGFGTDFTFPLSRMQPEDFASSYCQQYNNYTFTFGRGTKVEIKR	358000
18F11-4 (antibody, V domains shown) VH: QVQLQESGPGLVKPSGTLSLTCAVSGGSISSYNWWSWVRQPPGKGLEWIGEIYHSGSTNYNPSLKSRVTISVDKSKNQFSLKLSSVTAADTAVYYCARDEDYYGSGNYYHWGQGTLVTVSS VL: not shown	402000
